Measurements: the supplement of paper PMC11246515
± gives the standard deviation of the averaged measurements.

Assay: total protein half-life in vivo (active degradation + dilution); higher = more stable protein
[1] = E. coli NCM3722 delta-clpP delta-lon delta-hslV, growth: N-lim chemostat, doubling time 6 h
[2] = E. coli NCM3722 delta-clpP, growth: N-lim chemostat, doubling time 6 h
[3] = E. coli NCM3722 delta-hslV, growth: N-lim chemostat, doubling time 6 h
[4] = E. coli NCM3722 delta-smpB, growth: N-lim chemostat, doubling time 6 h
[5] = wild type E. coli NCM3722, growth: C-lim chemostat, doubling time 3 h
[6] = wild type E. coli NCM3722, growth: C-lim chemostat, doubling time 6 h
[7] = wild type E. coli NCM3722, growth: C-lim chemostat, doubling time 12 h
[8] = wild type E. coli NCM3722, growth: N-lim chemostat, doubling time 6 h
[9] = wild type E. coli NCM3722, growth: N-lim chemostat, doubling time 12 h
[10] = wild type E. coli NCM3722, growth: P-lim chemostat, doubling time 6 h
[11] = wild type E. coli NCM3722, growth: P-lim chemostat, doubling time 12 h
[12] = E. coli NCM3722 delta-lon, growth: N-lim chemostat, doubling time 6 h

For “MPSAHSVKLRPLEREDLRYVHQLDNNASVMRYWFEEPYEAFVELSDLYDKHIHDQSERRFVVECDGEKAGLVELVEINHVHRRAEFQIIISPEYQGKGLATRAAKLAMDYGFTVLNLYKLYLIVDKENEKAIHIYRKLGFSVEGELMHEFFINGQYRNAIRMCIFQHQYLAEHKTPGQTLLKPTAQ [P0A951]”, the “total protein half-life in vivo” value [1] was 5.494 ± 0.021 h, the “total protein half-life in vivo” value [2] was 6.01 ± 1.7 h and the “total protein half-life in vivo” value [3] was 5.04 ± 1.1 h. The “total protein half-life in vivo” value [4] was 5.16 ± 0.071 h, the “total protein half-life in vivo” value [5] was 2.7 ± 0.18 h and the “total protein half-life in vivo” value [6] was 5.17 ± 0.15 h. For the same sequence, the “total protein half-life in vivo” value [7] was 10.5 ± 0.81 h, the “total protein half-life in vivo” value [8] was 4.92 ± 0.18 h and the “total protein half-life in vivo” value [9] was 9.78 ± 1.9 h. The “total protein half-life in vivo” value [10] was 5.06 ± 0.2 h and the “total protein half-life in vivo” value [11] was 11.6 ± 0.61 h.
In the case of “MPSFDIVSEVDLQEARNAVDNASREVESRFDFRNVEASFELNDASKTIKVLSESDFQVNQLLDILRAKLLKRGIEGSSLDVPENIVHSGKTWFVEAKLKQGIESATQKKIVKMIKDSKLKVQAQIQGDEIRVTGKSRDDLQAVMAMVRGGDLGQPFQFKNFRD [P0A8E7]”, the “total protein half-life in vivo” value [1] is reported as 6.17 ± 0.16 h, the “total protein half-life in vivo” value [2] is reported as 6.38 ± 1 h and the “total protein half-life in vivo” value [3] is reported as 5.06 ± 0.27 h. The “total protein half-life in vivo” value [12] was 6.83 ± 0.4 h, the “total protein half-life in vivo” value [4] was 5.85 ± 0.38 h and the “total protein half-life in vivo” value [5] was 3.18 ± 0.28 h. For the same sequence, the “total protein half-life in vivo” value [6] was 6.22 ± 1.1 h, the “total protein half-life in vivo” value [7] was 10.7 ± 0.25 h and the “total protein half-life in vivo” value [8] was 4.32 ± 0.57 h. The “total protein half-life in vivo” value [9] was 8.82 ± 1 h, the “total protein half-life in vivo” value [10] was 5.06 ± 1.4 h and the “total protein half-life in vivo” value [11] was 12.7 ± 1.6 h.
With “MPSIRLADLAQQLDAELHGDGDIVITGVASMQSAQTGHITFMVNPKYREHLGLCQASAVVMTQDDLPFAKSAALVVKNPYLTYARMAQILDTTPQPAQNIAPSAVIDATAKLGNNVSIGANAVIESGVELGDNVIIGAGCFVGKNSKIGAGSRLWANVTIYHEIQIGQNCLIQSGTVVGADGFGYANDRGNWVKIPQIGRVIIGDRVEIGACTTIDRGALDDTIIGNGVIIDNQCQIAHNVVIGDNTAVAGGVIMAGSLKIGRYCMIGGASVINGHMEICDKVTVTGMGMVMRPITEPGVYSSGIPLQPNKVWRKTAALVMNIDDMSKRLKSLERKVNQQD” the “total protein half-life in vivo” value [1] was 6.07 ± 0.77 h, the “total protein half-life in vivo” value [2] was 6.31 ± 1.8 h and the “total protein half-life in vivo” value [3] was 5.56 ± 0.47 h. The “total protein half-life in vivo” value [12] was 5.67 ± 0.27 h, the “total protein half-life in vivo” value [4] was 5.17 ± 0.14 h and the “total protein half-life in vivo” value [5] was 2.94 ± 0.27 h. For the same sequence, the “total protein half-life in vivo” value [6] was 5.58 ± 0.18 h, the “total protein half-life in vivo” value [7] was 12.2 ± 1.4 h and the “total protein half-life in vivo” value [8] was 5.06 ± 0.12 h. The “total protein half-life in vivo” value [9] was 9.29 ± 0.54 h, the “total protein half-life in vivo” value [10] was 5.9 ± 0.48 h and the “total protein half-life in vivo” value [11] was 12.7 ± 0.47 h.
In the case of “MPSLSKEAALVHEALVARGLETPLRPPVHEMDNETRKSLIAGHMTEIMQLLNLDLADDSLMETPHRIAKMYVDEIFSGLDYANFPKITLIENKMKVDEMVTVRDITLTSTCEHHFVTIDGKATVAYIPKDSVIGLSKINRIVQFFAQRPQVQERLTQQILIALQTLLGTNNVAVSIDAVHYCVKARGIRDATSATTTTSLGGLFKSSQNTRHEFLRAVRHHN [P0A6T5]”, the “total protein half-life in vivo” value [1] is reported as 2.49 ± 0.12 h, the “total protein half-life in vivo” value [2] is reported as 1.56 ± 0.27 h and the “total protein half-life in vivo” value [3] is reported as 1.5 ± 0.11 h. For the same sequence, the “total protein half-life in vivo” value [12] was 1.82 ± 0.16 h, the “total protein half-life in vivo” value [4] was 1.65 ± 0.21 h and the “total protein half-life in vivo” value [5] was 2.81 ± 0.23 h. For the same sequence, the “total protein half-life in vivo” value [6] was 3.46 ± 0.48 h, the “total protein half-life in vivo” value [7] was 5.29 ± 0.21 h and the “total protein half-life in vivo” value [8] was 1.89 ± 0.34 h. The “total protein half-life in vivo” value [9] was 2.02 ± 0.14 h, the “total protein half-life in vivo” value [10] was 4.46 ± 0.21 h and the “total protein half-life in vivo” value [11] was 8.1 ± 0.27 h.
In the case of “MPVAHVALPVPLPRTFDYLLPEGMTVKAGCRVRVPFGKQQERIGIVVSVSDASELPLNELKAVVEVLDSEPVFTHSVWRLLLWAADYYHHPIGDVLFHALPILLRQGRPAANAPMWYWFATEQGQAVDLNSLKRSPKQQQALAALRQGKIWRDQVATLEFNDAALQALRKKGLCDLASETPEFSDWRTNYAVSGERLRLNTEQATAVGAIHSAADTFSAWLLAGVTGSGKTEVYLSVLENVLAQGKQALVMVPEIGLTPQTIARFRERFNAPVEVLHSGLNDSERLSAWLKAKNGEAAIVIGTRSALFTPFKNLGVIVIDEEHDSSYKQQEGWRYHARDLAVYRAHSEQIPIILGSATPALETLCNVQQKKYRLLRLTRRAGNARPAIQHVLDLKGQKVQAGLAPALITRMRQHLQADNQVILFLNRRGFAPALLCHDCGWIAECPRCDHYYTLHQAQHHLRCHHCDSQRPVPRQCPSCGSTHLVPVGLGTEQLEQTLAPLFPGVPISRIDRDTTSRKGALEQQLAEVHRGGARILIGTQMLAKGHHFPDVTLVALLDVDGALFSADFRSAERFAQLYTQVAGRAGRAGKQGEVVLQTHHPEHPLLQTLLYKGYDAFAEQALAERRMMQLPPWTSHVIVRAEDHNNQHAPLFLQQLRNLILSSPLADEKLWVLGPVPALAPKRGGRWRWQILLQHPSRVRLQHIINGTLALINTIPDSRKVKWVLDVDPIEG”, the “total protein half-life in vivo” value [1] is reported as 5.492 ± 0.011 h, the “total protein half-life in vivo” value [2] is reported as 6.24 ± 0.23 h and the “total protein half-life in vivo” value [3] is reported as 5.9 ± 0.067 h. For the same sequence, the “total protein half-life in vivo” value [12] was 5.89 ± 0.2 h, the “total protein half-life in vivo” value [4] was 5.23 ± 0.45 h and the “total protein half-life in vivo” value [5] was 2.86 ± 0.03 h. The “total protein half-life in vivo” value [6] was 5.85 ± 0.21 h, the “total protein half-life in vivo” value [7] was 9.53 ± 1.3 h and the “total protein half-life in vivo” value [8] was 5.35 ± 0.074 h. For the same sequence, the “total protein half-life in vivo” value [9] was 12.2 ± 1 h and the “total protein half-life in vivo” value [10] was 6.13 ± 0.2 h.
In the case of “MPVRAQRIQHVMQDTIINFYSTSDDYGDFSNFAAWPIKVDGKTWPTSEHYFQAQKFLDEKYREEIRRVSSPMVAARMGRDRSKPLRKNWESVKEQVMRKALRAKFEQHAELRALLLATAPAKLVEHTENDAYWGDGGHGKGKNRLGYLLMELREQLAIEK”, the “total protein half-life in vivo” value [3] is reported as 4.25 h and the “total protein half-life in vivo” value [7] is reported as 12.3 h.
For “MPVRASIEPLTWENAFFGVNSAIVRITSEAPLLTPDALAPWSRVQAKIAASNTGELDALQQLGFSLVEGEVDLALPVNNASDSGAVVAQETDIPALRQLASAAFAQSRFRAPWYAPDASSRFYAQWIENAVRGTFDHQCLILRAASGDIRGYVSLRELNATDARIGLLAGRGAGAELMQTALNWAYARGKTTLRVATQMGNTAALKRYIQSGANVESTAYWLYR”, the “total protein half-life in vivo” value [1] was 5.12 ± 0.074 h, the “total protein half-life in vivo” value [2] was 5.45 ± 0.15 h and the “total protein half-life in vivo” value [3] was 5.034 ± 0.029 h. For the same sequence, the “total protein half-life in vivo” value [12] was 5.27 ± 0.26 h, the “total protein half-life in vivo” value [4] was 4.7 ± 0.44 h and the “total protein half-life in vivo” value [5] was 3.03 ± 0.15 h. For the same sequence, the “total protein half-life in vivo” value [6] was 5.9 ± 0.062 h, the “total protein half-life in vivo” value [7] was 11.5 h and the “total protein half-life in vivo” value [8] was 5.052 ± 0.012 h. The “total protein half-life in vivo” value [9] was 9.31 ± 0.14 h, the “total protein half-life in vivo” value [10] was 5.73 ± 0.87 h and the “total protein half-life in vivo” value [11] was 12.6 ± 0.52 h.
In the case of “MPWIQLKLNTTGANAEDLSDALMEAGAVSITFQDTHDTPVFEPLPGETRLWGDTDVIGLFDAETDMNDVVAILENHPLLGAGFAHKIEQLEDKDWEREWMDNFHPMRFGERLWICPSWRDVPDENAVNVMLDPGLAFGTGTHPTTSLCLQWLDSLDLTGKTVIDFGCGSGILAIAALKLGAAKAIGIDIDPQAIQASRDNAERNGVSDRLELYLPKDQPEEMKADVVVANILAGPLRELAPLISVLPVSGGLLGLSGILASQAESVCEAYADSFALDPVVEKEEWCRITGRKN [P0A8T1]”, the “total protein half-life in vivo” value [1] is reported as 5.8 ± 2.4 h, the “total protein half-life in vivo” value [2] is reported as 4.39 ± 0.31 h and the “total protein half-life in vivo” value [3] is reported as 5.13 ± 1.4 h. For the same sequence, the “total protein half-life in vivo” value [12] was 4.36 ± 0.61 h, the “total protein half-life in vivo” value [4] was 3.91 ± 0.063 h and the “total protein half-life in vivo” value [5] was 3.16 ± 0.55 h. For the same sequence, the “total protein half-life in vivo” value [6] was 4.89 ± 0.5 h, the “total protein half-life in vivo” value [7] was 9.36 ± 0.56 h and the “total protein half-life in vivo” value [8] was 4.39 ± 0.22 h. For the same sequence, the “total protein half-life in vivo” value [9] was 6.89 ± 0.88 h, the “total protein half-life in vivo” value [10] was 5.37 ± 0.1 h and the “total protein half-life in vivo” value [11] was 10.86 ± 0.1 h.
